This is an account of results in article PMC9475542 (2022).

The experiment has as its target DNMT1 (Homo sapiens, UniProt P26358). The experiment can be described thus: ELISA. (ELISA stands for enzyme-linked immunosorbent assay.)

Sequence of DNMT1 (P26358 whole entry): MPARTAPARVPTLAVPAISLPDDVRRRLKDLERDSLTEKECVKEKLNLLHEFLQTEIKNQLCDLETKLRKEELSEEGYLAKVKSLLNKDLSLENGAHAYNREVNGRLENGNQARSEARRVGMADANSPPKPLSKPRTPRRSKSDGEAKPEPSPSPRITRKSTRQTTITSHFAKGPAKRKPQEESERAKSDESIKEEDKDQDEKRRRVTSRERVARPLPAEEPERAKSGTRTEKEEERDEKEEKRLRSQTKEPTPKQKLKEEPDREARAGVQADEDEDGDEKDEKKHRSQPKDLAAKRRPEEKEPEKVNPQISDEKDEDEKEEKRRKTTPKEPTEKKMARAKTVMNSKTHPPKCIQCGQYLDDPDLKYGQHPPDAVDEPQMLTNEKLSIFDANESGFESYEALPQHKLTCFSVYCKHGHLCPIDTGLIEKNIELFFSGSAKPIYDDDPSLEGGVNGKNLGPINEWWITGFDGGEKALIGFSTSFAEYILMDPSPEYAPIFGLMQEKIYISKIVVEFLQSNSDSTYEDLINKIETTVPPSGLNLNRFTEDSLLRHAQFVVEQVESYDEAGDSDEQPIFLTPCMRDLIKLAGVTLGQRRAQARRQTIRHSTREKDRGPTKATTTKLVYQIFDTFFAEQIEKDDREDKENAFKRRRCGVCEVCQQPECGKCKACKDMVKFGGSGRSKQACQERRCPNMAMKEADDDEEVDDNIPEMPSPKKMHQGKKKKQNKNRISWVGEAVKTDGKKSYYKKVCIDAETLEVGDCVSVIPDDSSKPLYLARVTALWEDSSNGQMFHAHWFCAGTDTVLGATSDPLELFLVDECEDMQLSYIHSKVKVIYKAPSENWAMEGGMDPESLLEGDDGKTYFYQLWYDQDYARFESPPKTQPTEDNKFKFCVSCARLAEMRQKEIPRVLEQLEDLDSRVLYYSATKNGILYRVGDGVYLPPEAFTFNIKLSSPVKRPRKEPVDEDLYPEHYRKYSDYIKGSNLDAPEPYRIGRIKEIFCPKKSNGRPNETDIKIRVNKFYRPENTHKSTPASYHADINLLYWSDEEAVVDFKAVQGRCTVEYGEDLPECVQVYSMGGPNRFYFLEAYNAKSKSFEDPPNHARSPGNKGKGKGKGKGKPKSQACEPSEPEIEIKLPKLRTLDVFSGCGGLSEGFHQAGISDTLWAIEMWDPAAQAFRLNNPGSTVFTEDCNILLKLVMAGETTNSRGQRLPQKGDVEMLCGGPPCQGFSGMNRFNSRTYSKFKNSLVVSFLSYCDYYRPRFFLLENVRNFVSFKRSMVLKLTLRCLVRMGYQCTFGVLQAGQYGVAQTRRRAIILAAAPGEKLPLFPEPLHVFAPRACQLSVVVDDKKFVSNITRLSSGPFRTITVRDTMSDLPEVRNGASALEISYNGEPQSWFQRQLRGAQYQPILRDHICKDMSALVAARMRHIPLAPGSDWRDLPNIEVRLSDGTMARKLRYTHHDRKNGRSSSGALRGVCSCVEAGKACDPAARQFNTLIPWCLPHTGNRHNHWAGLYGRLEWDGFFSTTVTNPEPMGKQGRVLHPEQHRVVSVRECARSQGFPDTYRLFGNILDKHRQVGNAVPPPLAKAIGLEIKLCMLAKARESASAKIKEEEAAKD

B1: CD133 (protein)
chain: GGQPSSTDAPKAWNYELPATNYETQDSHKAGPIGILFELVHIFLYVVQPRDFPEDTLRKFLQKAYESKIDYDKPETVILGLKIVYYEAGIILCCVLGLLFIILMPLVGYFFCMCRCCNKCGGEMHQRQKENGPFLRKCFAISLLVICIIISIGIFYGFVANHQVRTRIKRSRKLADSNFKDLRTLLNETPEQIKYILAQYNTTKDKAFTDLNSINSVLGGGILDRLRPNIIPVLDEIKSMATAIKETKEALENMNSTLKSLHQQSTQLSSSLTSVKTSLRSSLNDPLCLVHPSSETCNSIRLSLSQLNSNPELRQLPPVDAELDNVNNVLRTDLDGLVQQGYQSLNDIPDRVQRQTTTVVAGIKRVLNSIGSDIDNVTQRLPIQDILSAFSVYVNNTESYIHRNLPTLEEYDSYWWLGGLVICSLLTLIVIFYYLGLLCGVCGYDRHATPTTRGCVSNTGGVFLMVGVGLSFLFCWILMIIVVLTFVFGANVEKLICEPYTSKELFRVLDTPYLLNEDWEYYLSGKLFNKSKMKLTFEQVYSDCKKNRGTYGTLHLQNSFNISEHLNINEHTGSISSELESLKVNLNIFLLGAAGRKNLQDFAACGIDRMNYDSYLAQTGKSPAGVNLLSFAYDLEAKANSLPPGNLRNSLKRDAQTIKTIHQQRVLPIEQSLSTLYQSVKILQRTGNGLLERVTRILASLDFAQNFITNNTSSVIIEETKKYGRTIIGYFEHYLQWIEFSISEKVASCKPVATALDTAVDVFLCSYIIDPLNLFWFGIGKATVFLLPALIFAVKLAKYYRRMDSEDVYDDVETIPMKNMENGNNGYHKDHVYGIHNPVMTSPSQH
Usually Kd stands for the equilibrium constant for the complex coming apart. High values mean lower affinity, low ones higher affinity. With B1, the Kd is ~150 nM.
